According to US20260167698A1 (ONO PHARMACEUTICAL, published 2026):

Biological target: T1, human Allergin-1L (expressed on CHO cells) (human, UniProt Q7Z6M3 20-343)
T1 construct: also called MILR1; human Allergin-1L-expressing CHO cell lines
T1 sequence: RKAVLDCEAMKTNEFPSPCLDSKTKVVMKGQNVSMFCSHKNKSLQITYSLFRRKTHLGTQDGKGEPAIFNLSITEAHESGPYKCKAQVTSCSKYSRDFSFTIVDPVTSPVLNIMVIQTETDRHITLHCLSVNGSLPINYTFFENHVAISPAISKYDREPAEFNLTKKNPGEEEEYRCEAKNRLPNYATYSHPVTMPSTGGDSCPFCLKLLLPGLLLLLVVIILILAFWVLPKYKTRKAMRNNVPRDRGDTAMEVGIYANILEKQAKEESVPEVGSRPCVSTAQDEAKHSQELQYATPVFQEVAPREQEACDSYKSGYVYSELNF
Assay: flow cytometry, binding to Allergin-1L

EC50: 1.49 nM
B1: anti-Allergin-1 bispecific antibody #15p_h_opt clone (bispecific antibody, human IgG1, kappa, L234A L235A, N297A)
heavy: EVQLVESGGGLVQPGGSLRLSCAASGFSLTIYTITWVRQAPGKGLEWIGTINSYGNTYYSTWAKGRFTISRDNSKNTVYLQMNSLRAEDTAVYYCARGYVDSDWYLNIWGQGTLVTVSSASTKGPSVFPLAPSSKSTSGGTAALGCLVKDYFPEPVTVSWNSGALTSGVHTFPAVLQSSGLYSLSSVVTVPSSSLGTQTYICNVNHKPSNTKVDKRVEPKSCDKTHTCPPCPAPEAAGGPSVFLFPPKPKDTLMISRTPEVTCVVVDVSHEDPEVKFNWYVDGVEVHNAKTKPREEQYASTYRVVSVLTVLHQDWLNGKEYKCKVSNKALPAPIEKTISKAKGQPREPQVYTLPPSREEMTKNQVSLTCLVKGFYPSDIAVEWESNGQPENNYKTTPPVLDSDGSFFLYSKLTVDKSRWQQGNVFSCSVMHEALHNHYTQKSLSLSPGGGGGSGGGGSDIQMTQSPSSLSASVGDRVTITCQASESIGSLLAWYQQKPGKAPKLLIYRASTLESGVPSRFSGSGSGTDFTLTISSLQPEDFATYYCQSYHYSSSSSYAAFGCGTKVTVLGGGGGSGGGGSGGGGSGGGGSEVQLVESGGGLVQPGGSLRLSCAASGFSLSSHAMSWVRQAPGKCLEWIGTISTIDTTYYASWAKGRFTISRDNSKNTVYLQMNSLRAEDTAVYYCARLSELYTTNSYYSRWGQGTLVTVSS
light: AIQMTQSPSSLSARVGDRVTITCQSSESVYDNNYLSWYQQKPGKAPKLLIYDASRLASGVPSRFSGSGSGTQFTLTISSLQPEDFATYYCLGGYDSSGWYAAFGQGTKVEIKRTVAAPSVFIFPPSDEQLKSGTASVVCLLNNFYPREAKVQWKVDNALQSGNSQESVTEQDSKDSTYSLSSTLTLSKADYEKHKVYACEVTHQGLSSPVTKSFNRGEC
notes: Morrison form: Fab Pro2281, scFv Pro2285
